Data taken from the supplement of paper PMC5998384.

Experiments:
HeLa Kyoto [1] = assay: solubility in G1/S (NP-40 vs SDS abundance) (log2 ratio); higher = more soluble; conditions: cell cycle stage: G1/S
HeLa Kyoto [2] = assay: solubility change mitosis vs G1/S (difference of NP-40 vs SDS log2 ratios) (log2 ratio difference); higher = more soluble in mitosis
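Wherever solubility change mitosis vs G1/S (difference of NP-40 vs SDS log2 ratios) is given: synchronized HeLa Kyoto cells (double thymidine block for G1/S, nocodazole release for mitosis), protein amounts in NP-40 versus SDS lysates quantified by mass spectrometry, three biological replicates.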
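Wherever solubility in G1/S (NP-40 vs SDS abundance) is given: HeLa Kyoto cells arrested at G1/S by double thymidine block, proteins quantified by TMT10plex mass spectrometry in mild NP-40 versus SDS extracts, three biological replicates.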

MRRDERDAKAMRSLQPPDGAGSPPESLRNGYVKSCVSPLRQDPPRGFFFHLCRFCNVELRPPPASPQQPRRCSPFCRARLSLGALAAFVLALLLGAEPESWAAGAAWLRTLLSVCSHSLSPLFSIACAFFFLTCFLTRTKRGPGPGRSCGSWWLLALPACCYLGDFLVWQWWSWPWGDGDAGSAAPHTPPEAAAGRLLLVLSCVGLLLTLAHPLRLRHCVLVLLLASFVWWVSFTSLGSLPSALRPLLSGLVGGAGCLLALGLDHFFQIREAPLHPRLSSAAEEKVPVIRPRRRSSCVSLGETAASYYGSCKIFRRPSLPCISREQMILWDWDLKQWYKPHYQNSGGGNGVDLSVLNEARNMVSDLLTDPSLPPQVISSLRSISSLMGAFSGSCRPKINPLTPFPGFYPCSEIEDPAEKGDRKLNKGLNRNSLPTPQLRRSSGTSGLLPVEQSSRWDRNNGKRPHQEFGISSQGCYLNGPFNSNLLTIPKQRSSSVSLTHHVGLRRAGVLSSLSPVNSSNHGPVSTGSLTNRSPIEFPDTADFLNKPSVILQRSLGNAPNTPDFYQQLRNSDSNLCNSCGHQMLKYVSTSESDGTDCCSGKSGEEENIFSKESFKLMETQQEEETEKKDSRKLFQEGDKWLTEEAQSEQQTNIEQEVSLDLILVEEYDSLIEKMSNWNFPIFELVEKMGEKSGRILSQVMYTLFQDTGLLEIFKIPTQQFMNYFRALENGYRDIPYHNRIHATDVLHAVWYLTTRPVPGLQQIHNGCGTGNETDSDGRINHGRIAYISSKSCSNPDESYGCLSSNIPALELMALYVAAAMHDYDHPGRTNAFLVATNAPQAVLYNDRSVLENHHAASAWNLYLSRPEYNFLLHLDHVEFKRFRFLVIEAILATDLKKHFDFLAEFNAKANDVNSNGIEWSNENDRLLVCQVCIKLADINGPAKVRDLHLKWTEGIVNEFYEQGDEEANLGLPISPFMDRSSPQLAKLQESFITHIVGPLCNSYDAAGLLPGQWLEAEEDNDTESGDDEDGEELDTEDEEMENNLNPKPPRRKSRRRIFCQLMHHLTENHKIWKEIVEEEEKCKADGNKLQVENSSLPQADEIQVIEEADEEE [PDE3B]
solubility in G1/S (log2) (HeLa Kyoto [1]): -0.122 | solubility change mitosis (log2) (HeLa Kyoto [2]): -0.0328

MAEASFGSSSPVGSLSSEDHDFDPTAEMLVHDYDDERTLEEEEMMDEGKNFSSEIEDLEKEGTMPLEDLLAFYGYEPTIPAVANSSANSSPSELADELPDMTLDKEEIAKDLLSGDDEETQSSADDLTPSVTSHETSDFFPRPLRSNTACDGDKESEVEDVETDSGNSPEDLRKEIMIGLQYQAEIPPYLGEYDGNEKVYENEDQLLWCPDVVLESKVKEYLVETSLRTGSEKIMDRISAGTHTRDNEQALYELLKCNHNIKEAIERYCCNGKASQEGMTAWTEEECRSFEHALMLFGKDFHLIQKNKVRTRTVAECVAFYYMWKKSERYDYFAQQTRFGKKRYNHHPGVTDYMDRLVDETEALGGTVNASALTSNRPEPIPDQQLNILNSFTASDLTALTNSVATVCDPTDVNCLDDSFPPLGNTPRGQVNHVPVVTEELLTLPSNGESDCFNLFETGFYHSELNPMNMCSEESERPAKRLKMGIAVPESFMNEVSVNNLGVDFENHTHHITSAKMAVSVADFGSLSANETNGFISAHALHQHAALHSE [MIER3]
solubility in G1/S (log2) (HeLa Kyoto [1]): 0.163 | solubility change mitosis (log2) (HeLa Kyoto [2]): -0.33

MAMQEKYPTEGISHVTSPSSDVIQKGSSLGTEWQTPVISEPFRSRFSRCSSVADSGDTAIGTSCSDIAEDFCSSSGSPPFQPIKSHVTIPTAHVMPSTLGTSPAKPNSTPVGPSSSKLPLSGLAESVGMTRNGDLGAMKHSPGLSRDLMYFSGATGENGIEQSWFPAVGHERQEEARKFDIPSMESTLNQSAMMETLYSDPHHRVRFHNPRTSTSKELYRVLPEAKKAPGSGAVFERNGPHSNSSGVLPLGLQPAPGLSKPLPSQVWQPSPDTWHPREQSCELSTCRQQLELIRLQMEQMQLQNGAICHHPAAFGPSLPILEPAQWISILNSNEHLLKEKELLIDKQRKHISQLEQKVRESELQVHSALLGRPAPFGDVCLLRLQELQRENTFLRAQFAQKTEALSREKIDLEKKLSASEVEVQLIRESLKVALQKHSEEVKKQEERVKGRDKHINNLKKKCQKESEQNREKQQRIETLERYLADLPTLEDHQKQSQQLKDSELKSTELQEKVTELESLLEETQAICREKEIQLESLRQREAEFSSAGHSLQDKQSVEETSGEGPEVEMESWQKRYDSLQKIVEKQQQKMDQLRSQVQSLEQEVAQEEGTSQALREEAQRRDSALQQLRTAVKELSVQNQDLIEKNLTLQEHLRQAQPGSPPSPDTAQLALELHQELASCLQDLQAVCSIVTQRAQGHDPNLSLLLGIHSAQHPETQLDLQKPDVIKRKLEEVQQLRRDIEDLRTTMSDRYAQDMGENCVTQ [CEP85]
solubility in G1/S (log2) (HeLa Kyoto [1]): 0.35 | solubility change mitosis (log2) (HeLa Kyoto [2]): -0.194

RAI1
solubility in G1/S (log2) (HeLa Kyoto [1]): -0.769 | solubility change mitosis (log2) (HeLa Kyoto [2]): 0.596
